Test results taken from paper PMC7333360.

How the values were obtained:
Conditions in all cases: glycan lost; control: wild-type mice
[1] = TAB1 IP and immunoblot, brain tissue
[2] = breeding homozygous knock-in mice with WT
[3] = heart weight per g body weight, three months
[4] = body weight at three months, n=6 per genotype
[5] = heterozygous crosses, observation of homozygous knock-in mice

B1: TAB1 (TGF-β activated kinase-1 binding protein-1): S393A (protein)
parent chain: MAAQRRSLLQSEQQPSWTDDLPLCHLSGVGSASNRSYSADGKGTESHPPEDNWLKFRSENNCFLYGVFNGYDGNRVTNFVAQRLSAELLLGQLNTEHTEADVRRVLLQAFDVVERSFLESIDDALAEKASLQSQLPEGVPQHQLPPQYQKILERLKALEREISGGAMAVVAVLLNSKLYVANVGTNRALLCKSTVDGLQVTQLNMDHTTENEDELFRLSQLGLDAGKIKQMGVICGQESTRRIGDYKVKYGYTDIDLLSAAKSKPIIAEPEIHGAQPLDGVTGFLVLMSEGLYKALEAAHGPGQANQEIAAMIDTEFAKQTSLDAVAQAVVDRVKRIHSDTFASGGERAKFCPRHEDMTLLVRNFGYPLGEMSQPTPTPAPGGRVYPVSVPYSSAQSTSKTSVTLSLVMPSQGQMVNGSHSASTLDEATPTLTNQSPTLTLQSTNTHTQSSSSSSDGGLFRSRPAHSLPPGEDGRVEPYVDFAEFYRLWSVDHGEQSVMTAP
no change: expression_or_secretion [1] | other: fertility [2] | other: heart weight [3] | other: body weight [4] | other: mouse viability and development [5]
